Target: HA-PTH1R_(mTurquoise/mCitrine) (human) (UniProt Q03431)
UniProt Q03431, sequence (Q03431 27-593): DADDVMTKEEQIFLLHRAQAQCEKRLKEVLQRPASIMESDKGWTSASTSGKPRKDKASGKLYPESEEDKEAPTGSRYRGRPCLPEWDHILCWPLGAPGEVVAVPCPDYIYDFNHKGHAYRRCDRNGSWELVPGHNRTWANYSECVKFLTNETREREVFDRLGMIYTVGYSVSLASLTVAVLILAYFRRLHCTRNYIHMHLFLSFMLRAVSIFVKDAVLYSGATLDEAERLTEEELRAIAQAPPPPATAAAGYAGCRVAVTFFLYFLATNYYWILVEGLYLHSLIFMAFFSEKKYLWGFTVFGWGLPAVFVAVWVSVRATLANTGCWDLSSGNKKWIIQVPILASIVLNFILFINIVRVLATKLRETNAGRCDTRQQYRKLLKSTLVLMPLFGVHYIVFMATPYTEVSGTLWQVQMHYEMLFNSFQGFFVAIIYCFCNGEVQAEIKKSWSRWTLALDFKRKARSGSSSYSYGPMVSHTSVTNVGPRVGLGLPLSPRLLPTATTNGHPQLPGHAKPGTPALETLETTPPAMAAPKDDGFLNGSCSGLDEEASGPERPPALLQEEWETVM

pEC50 of the PTH-induced FRET change of the PTH1R (FRET) conformational biosensor (plate reader, HEK293 cells), with RAMP2 (SNAP) coexpressed (1 µg cDNA): 8.59
pEC50 of the PTH-induced FRET change of the PTH1R (FRET) conformational biosensor (plate reader, HEK293 cells), without RAMP2: 8.73
Substance: parathyroid hormone PTH (1–34) (peptide)
